This note sets out measurements from patent publication US20200317768A1 (published 2020).

For experiment [1], the target named is T1, human FcγRIIIaV extracellular domain with C-terminal His-tag (human, UniProt P08637 17-208).
T1 construct: Expressed in FreeStyle 293 cells and purified; also called FcgRIIIaV; not shown: C-terminal His-tag
Put plainly: SPR (Biacore); KD of SG1 divided by KD of the variant for this FcgR. The protocol: (§1) The kinetic analysis of interactions between these antibodies and FcγR was carried out using BIACORE® T200 or BIACORE® 4000 (GE Healthcare). HBS-EP+ (GE Healthcare) was used as the running buffer, and the measurement temperature was set to 25° C. A chip produced by immobilizing Protein A. Protein A/G or mouse anti-human IgG kappa light chain (BD Biosciences) onto a Series S Sensor Chip CM4 or CM5 (GE Healthcare) by the amine-coupling method was used. […] After the measurement, the antibody captured on the chip was washed off by allowing reaction with 10 mM glycine-HCl, pH1.5 and 25 mM NaOH so that the chip was regenerated and used repeatedly. The sensorgrams obtained as measurement results were analyzed by the 1:1 Langmuir binding model using the BIACORE® Evaluation Software to calculate the binding rate constant ka (L/mol/s) and dissociation rate constant kd (l/s), and the dissociation constant KD (mol/L) was calculated from these values. […] Regarding such interactions, KD values were calculated using the following 1:1 binding model described in BIACORE® T100 Software Handbook BR1006-48 Edition AE.
(§2) The resultant variants were expressed using M103202L889-SK1 as light chain and their affinity to human and cynoFcγRs were evaluated (Table 20).
(In general: In SPR one partner is held on a chip, and binding of the other changes the refractive index at the surface.)

The target of experiment [2] is T2, human FcγRIIaR extracellular domain with C-terminal His-tag (human, UniProt P12318 34-217).
T2 construct: Expressed in FreeStyle 293 cells and purified; also called human FcγRIIa (type R); FcgRIIaR; not shown: C-terminal His-tag
T2 chain: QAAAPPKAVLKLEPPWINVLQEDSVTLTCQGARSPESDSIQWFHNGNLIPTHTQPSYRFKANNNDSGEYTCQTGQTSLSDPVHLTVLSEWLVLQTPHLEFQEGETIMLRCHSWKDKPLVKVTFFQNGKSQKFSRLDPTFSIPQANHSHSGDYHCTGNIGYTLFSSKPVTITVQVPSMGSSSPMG
The description is as above. As to the method: as §1, §2

In experiment [3] the target is T3, cynomolgus monkey FcγRIIa2 extracellular domain with C-terminal His-tag (cynomolgus monkey).
T3 construct: Expressed in FreeStyle 293 cells and purified; also called cyno FcγRIIa2; cynoFcgRIIa2; not shown: C-terminal His-tag
T3 chain: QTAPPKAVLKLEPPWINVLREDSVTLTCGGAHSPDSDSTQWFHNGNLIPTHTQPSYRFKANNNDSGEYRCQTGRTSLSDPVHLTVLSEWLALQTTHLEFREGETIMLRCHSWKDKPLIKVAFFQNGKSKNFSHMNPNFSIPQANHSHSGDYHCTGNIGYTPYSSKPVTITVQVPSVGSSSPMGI
The experiment is described as above. The protocol: as §1, §2

The target in experiment [4] is T4, cynomolgus monkey FcγRIIa3 extracellular domain with C-terminal His-tag (cynomolgus monkey).
T4 construct: Expressed in FreeStyle 293 cells and purified; also called cyno FcγRIIa3; cynoFcgRIIa3; not shown: C-terminal His-tag
T4 chain: T3 chain with K127I, N130K, H133P, Q142R
Described as above. The protocol: as §1, §2

Experiment [5] has as its target T5, cynomolgus monkey FcγRIIIaS extracellular domain with C-terminal His-tag (cynomolgus monkey, UniProt Q8SPW2 21-206 at identity 1.00)).
T5 construct: Expressed in FreeStyle 293 cells and purified; also called cyno FcγRIIIaS; cynoFcγRIIIaS; not shown: C-terminal His-tag
T5 chain: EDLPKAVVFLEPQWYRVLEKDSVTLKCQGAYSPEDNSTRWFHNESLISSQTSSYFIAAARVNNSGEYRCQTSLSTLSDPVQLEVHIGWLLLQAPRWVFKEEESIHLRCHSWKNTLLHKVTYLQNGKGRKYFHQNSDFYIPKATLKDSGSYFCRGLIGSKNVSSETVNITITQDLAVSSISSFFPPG
The experiment is described as above. The protocol: as §1, §2

Experiment [6] deals with T6, cynomolgus monkey FcγRIIa3 extracellular domain, His-tagged (cynomolgus monkey).
T6 construct: also called cyno FcgRIIa3; cynoFcγRIIa3; not shown: His-tag added to the C-terminus
T6 chain: T3 chain with K127I, N130K, H133P, Q142R
Put plainly: SPR; KD of SG1 divided by KD of the variant. As to the method: (§3) Regarding such interactions, KD values were calculated using the following 1:1 binding model described in BIACORE® T100 Software Handbook BR1006-48 Edition AE.
(§4) The behavior of interacting molecules according to the 1:1 binding model on BIACORE® can be described by Equation 1: Req=C·R max/(KD+C)+RI, wherein, Req is a plot of steady-state binding levels to analyte concentration. C is concentration, RI is bulk refractive index contribution in the sample, and Rmax is analyte binding capacity of the surface. When this equation is rearranged, KD can be expressed as Equation 2: KD=C·Rmax/(Req−RI)−C. KD can be calculated by substituting the values of Rmax, RI, and C into Equation 1 or Equation 2. From the current measurement conditions, RI=0, C=2 μmol/L can be used.
(§5) The resultant variants were expressed using M103202L889-SK1 as light chain and their affinity to human and cynoFcγRs were evaluated (Table 21).

Experiment [7] addresses T7, human FcγRIIb extracellular domain, His-tagged (human, UniProt P31994 43-217).
T7 construct: also called human FcgRIIb; not shown: His-tag added to the C-terminus
T7 sequence: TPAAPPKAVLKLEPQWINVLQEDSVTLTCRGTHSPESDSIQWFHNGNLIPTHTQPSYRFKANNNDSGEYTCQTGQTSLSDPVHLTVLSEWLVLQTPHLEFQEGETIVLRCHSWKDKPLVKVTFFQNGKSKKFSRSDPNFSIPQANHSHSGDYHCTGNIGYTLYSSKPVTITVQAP
Put plainly: SPR; KD of SG1 divided by KD of the variant. As to the method: as §3, §4, §5

Positions count from the first letter of the chain named. In names and notes the source's numbering stands.
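Further: relative to parent M103205H795-SG1 carrying the SG1 human heavy chain constant region.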

T1 sequence (P08637 17-208 F176V): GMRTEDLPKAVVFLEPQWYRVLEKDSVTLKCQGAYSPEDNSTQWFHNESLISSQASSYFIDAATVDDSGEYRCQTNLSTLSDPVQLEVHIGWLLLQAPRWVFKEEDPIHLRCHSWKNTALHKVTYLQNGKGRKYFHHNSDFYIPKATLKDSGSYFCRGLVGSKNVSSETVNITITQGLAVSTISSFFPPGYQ

B1: M103205H795-MY169 / M103202L889-SK1 (antibody, human IgG1, kappa)
heavy: QVTLKESGPVLVKPTETLTLTCTVSGIDLSHDDISWVRQAPGKGLEWVGIISYAGSTYYASWAKGRLTISKDTSKNQVVLTMTNMDPVDTATYYCARGVPAYSHGGDLWGQGTLVTVSSASTKGPSVFPLAPSSKSTSGGTAALGCLVKDYFPEPVTVSWNSGALTSGVHTFPAVLQSSGLYSLSSVVTVPSSSLGTQTYICNVNHKPSNTKVDKKVEPKSCDKTHTCPPCPAPELLNGPSVFLFPPKPKDTLMISRTPEVTCVVVDVSEEDPEVKFNWYVDGVEVHNAKTKPREEQYNSTYRVVSVLTVLHQDWLNGKEYKCKVSNKALPAPIEKTISKAKGQPREPQVYTLPPSREEMTKNQVSLTCLVKGFYPSDIAVEWESNGQPENNYKTTPDVLDSDGSFFLYSKLTVDKSRWQQGNVFSCSVMHEALHNHYTQKSLSLSP
light: DIVMTQSPATLSLSPGERATLSCTSSQSVYHANWLSWFQQKPGQPPKLLIYWASTLAYGVPSRFSGSGSGTDFTLTISSLQPEDAATYYCAGGYGGGRYAFGQGTKVEIKRTVAAPSVFIFPPSDEQLKSGTASVVCLLNNFYPREAKVQWKVDNALQSGNSQESVTEQDSKDSTYSLSSTLTLSKADYEKHKVYACEVTHQGLSSPVTKSFNRGEC
notes: Position 396 variant derived from MY052, expressed with M103202L889-SK1 as light chain
On to B1, for which the “KD fold (SG1 = 1)” value is 0.13 fold in experiment [1]; 0.4 fold in experiment [2]; 2.2 fold in experiment [3]; 1.7 fold in experiment [4]; 0.1 fold in experiment [5].

B2: MS1032LO06-SG1 (M103205H795-SG1/M103202L889-SK1) (antibody, human IgG1, kappa)
heavy: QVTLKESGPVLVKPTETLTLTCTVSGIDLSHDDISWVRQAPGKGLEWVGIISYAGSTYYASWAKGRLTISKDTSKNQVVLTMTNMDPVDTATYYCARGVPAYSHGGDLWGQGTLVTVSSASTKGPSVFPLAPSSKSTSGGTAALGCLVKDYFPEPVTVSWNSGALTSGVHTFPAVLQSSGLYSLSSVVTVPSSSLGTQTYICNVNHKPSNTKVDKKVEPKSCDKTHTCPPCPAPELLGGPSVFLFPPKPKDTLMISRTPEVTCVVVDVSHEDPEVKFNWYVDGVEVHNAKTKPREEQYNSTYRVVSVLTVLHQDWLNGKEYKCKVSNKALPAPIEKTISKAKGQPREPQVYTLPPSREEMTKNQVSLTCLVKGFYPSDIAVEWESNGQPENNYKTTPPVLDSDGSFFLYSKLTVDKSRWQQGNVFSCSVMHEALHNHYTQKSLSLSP
light: B1 light
notes: Anti-latent myostatin antibody; Parent of the Fc variants; copies: 2 + 2
Take B2: the “KD fold (SG1 = 1)” value in experiment [6] and in experiment [7] was 1 fold in each case.

B3: M103205H795-MY265/M103202L889-SK1 (antibody, human IgG1, kappa)
heavy: B1 heavy with N238T, E270D, A332K, D398P
light: B1 light
notes: copies: 2 + 2
Take B3: the figures for the “KD fold (SG1 = 1)” value in experiment [6] and in experiment [7] were 3.5 fold and 2.1 fold, respectively.

B4: M103205H795-MY261/M103202L889-SK1 (antibody, human IgG1, kappa)
heavy: B1 heavy with N238H, E270D, A332K, D398P
light: B1 light
notes: copies: 2 + 2
Regarding B4, the “KD fold (SG1 = 1)” value in experiment [6] was 3.1 fold; in experiment [7], 0.9 fold.

B5: M103205H795-MY171 / M103202L889-SK1 (antibody, human IgG1, kappa)
heavy: B1 heavy with D398F
light: B1 light
notes: as for B1
Regarding B5, the “KD fold (SG1 = 1)” value amounted to 0.14 fold in experiment [1]; 0.5 fold in experiment [2]; 2.2 fold in experiment [3]; 1.8 fold in experiment [4]; 0.11 fold in experiment [5].

B6: M103205H795-MY260/M103202L889-SK1 (antibody, human IgG1, kappa)
heavy: B1 heavy with N238M, E270D, A332K, D398P
light: B1 light
notes: copies: 2 + 2
With B6, the “KD fold (SG1 = 1)” value in experiment [6] came out at 1.2 fold; in experiment [7] it was 0.8 fold.

B7: M103205H795-MY201/M103202L889-SK1 (antibody, human IgG1, kappa)
heavy: B1 heavy with E270D, A332K, D398P
light: B1 light
notes: Fc variant G236N/H268D/A330K (EU numbering) of SG1; also called MS1032LO06-MY201; copies: 2 + 2
Turning to B7, the “KD fold (SG1 = 1)” value in experiment [6] amounted to 4.4 fold; in experiment [7] it was 4.2 fold.

B8: M103205H795-MY267/M103202L889-SK1 (antibody, human IgG1, kappa)
heavy: B1 heavy with N238I, E270D, A332K, D398P
light: B1 light
notes: copies: 2 + 2
Take B8: the “KD fold (SG1 = 1)” value in experiment [6] was 2.3 fold; in experiment [7] it was 0.8 fold.

B9: M103205H795-MY263/M103202L889-SK1 (antibody, human IgG1, kappa)
heavy: B1 heavy with N238Q, E270D, A332K, D398P
light: B1 light
notes: copies: 2 + 2
Turning to B9, the “KD fold (SG1 = 1)” value in experiment [6] is 2.3 fold; in experiment [7], 1.3 fold.

B10: M103205H795-MY264/M103202L889-SK1 (antibody, human IgG1, kappa)
heavy: B1 heavy with N238L, E270D, A332K, D398P
light: B1 light
notes: copies: 2 + 2
Turning to B10, the “KD fold (SG1 = 1)” value worked out at 1.1 fold in experiment [6] and 0.4 fold in experiment [7].

B11: M103205H795-MY170 / M103202L889-SK1 (antibody, human IgG1, kappa)
heavy: B1 heavy with D398E
light: B1 light
notes: as for B1
As for B11, the “KD fold (SG1 = 1)” value in experiment [1] came out at 0.13 fold; in experiment [2], 0.4 fold; in experiment [3], 2.1 fold; in experiment [4] it was 1.4 fold; in experiment [5] it was 0.12 fold.

B12: M103205H795-MY262/M103202L889-SK1 (antibody, human IgG1, kappa)
heavy: B1 heavy with N238V, E270D, A332K, D398P
light: B1 light
notes: copies: 2 + 2
For B12, the “KD fold (SG1 = 1)” value was found to be 2.1 fold in experiment [6] and 0.8 fold in experiment [7].
